Reference: patent US8871276B2, “Beta-casein assemblies for mucosal delivery of therapeutic bioactive agents” (Technion Research and Development Foundation Ltd., priority 2008, dated 2014)

Assays:
Format in all cases: physicochemical
[1] = Small angle X-ray scattering (SAXS) of micelles; conditions: 1 wt % β-casein, empty or loaded 1:8 protein:celecoxib, pH ~7
[2] = Analytical ultracentrifugation (sedimentation equilibrium)
Procedure: Sedimentation equilibrium experiments were performed at 24° C. using a Beckman Optima XL-A (Palo Alto, Calif.) analytical centrifuge at 6,000, 10,000, and 12,000 rpm for the low-pH solutions and at 4,000, 6,000, and 8,000 rpm for the pH 7.0 solutions. Data were collected at 280 nm. The β-casein solutions were studied at concentrations ranging from 0.2 to 10.0 mg/mL at pH 2.6 and from 0.2 to 2 mg/mL at pH 7.0 and an ionic strength of 0.1. […] The average apparent molecular weight of the micelles at the various protein concentrations was calculated following methods well known in the art (The partial specific volume νj of the solute was taken to be […], and a solution density F of 1.0044 g/cm^3 was measured). At β-casein concentrations of 2 mg/mL and above under low pH conditions, the plot of the natural logarithm of the measured absorbance versus the square of the radius from the axis of rotation was not linear. To estimate Nagg, the limiting slope toward the outer edge of the sample cell was used to provide d ln(c)/dr^2. The molecular weight calculated using this slope was divided by the monomer molecular weight calculated from the β-casein amino acid sequence (24,000).
To determine the aggregation number of the micelles at pH 2.6, analytical ultracentrifugation experiments were conducted at various protein concentrations and at […] and IS of 0.002. Sample data are plotted in FIG. 7, showing data with the protein concentration at 5 mg/ml, and ionic strength (IS) of 0.002. […] The aggregation numbers calculated from the slope of this line confirmed that the protein is monomeric at these concentrations. At concentrations higher than the CMC, two regions could be defined, indicating the presence of two protein populations: monomers at relatively short radii (i.e., in FIG. 7 at r<6.5 or r2<43) and assemblies at large radii. The micelles at pH 2.6 are characterized by a small aggregation number of 3 around the CMC and 6 at higher concentrations. In contrast, Nagg of 20 was measured at pH 7.0 and ionic strength 0.1. […]

[3] = Wide-angle X-ray diffraction (XRD); conditions: powder / lyophilized specimen, 1:8 mole ratio where loaded
Procedure: The operating conditions were CuKα radiation (0.154 nm), voltage 40 kV and current 40 mA, in 20 recording range from 3° to 65°, at room temperature.

[4] = Density measurements of β-casein solutions (density meter DMA 5000); conditions: 20 mg/ml β-casein, pH 2.6, lactic acid solution
Procedure: The specific gravity of the solvents and the protein solutions was measured by a density meter DMA 5000 from Anton-Paar at various temperatures. These measurements enabled an accuracy of six digits.
Density measurements of the β-casein solutions at pH 2.6 as a function of temperature are summarized in Table 1 Density measurements were performed using a density meter DMA 5000 from Anton-Paar, reaching an accuracy of six digits.

[5] = Dynamic light scattering (DLS) size distribution
Procedure: DLS and Zeta potential measurements performed on a combined DLS and zeta potential analyzer (Nicomp 380 ZLS zeta potential/particle sizer, USA), at 25° C. were performed for size distribution and electrostatics characterization. For DLS measurements the scattered light intensity was detected with an Avalanche Photo Diode (APD) detector, used at a fixed angle of 90°. Laser wavelength was 658 nm, operating at 90 mW. Mono- bi- or tri-modal distributions were calculated from the scattered light intensity fluctuations, by Nicomp™ cumulants analysis of the intensity autocorrelation function. Zeta potential measurements were performed in triplicate.

[6] = Storage stability / appearance of suspensions and lyophilized powder; conditions: stored at 4 °C, neutral pH
Procedure: Bovine β-casein (>90%; Sigma-Aldrich) was dissolved in pH 7.0 hepes buffer containing 200 mM hepes (MP Biomedicals), 10 mM MgCl2 (Sigma-Aldrich), 20 mM EGTA (Sigma-Aldrich) and 10 mM NaCl (Loba Chemie), and was placed over-night at 4° C. under stirring. The protein solutions were prepared at concentrations ranging from 0.5 to 2 wt % (0.21 to 0.83 mM respectively), and were filtered through a porous membrane of 0.45 μm to avoid large protein aggregates. […] Stirring continued for 30 minutes in room temperature. […] The specimens remained stable i.e., no precipitation was observed, for at least 3 weeks at 4° C.
Protein and protein-drug solutions were lyophilized by freezing in liquid nitrogen followed by drying in a Christ Alpha 1-4 lyophilizer for 24 hours. The specimens were stored in 4° C. until re-suspension in hepes buffer, back to the original concentration (0.5 wt % or 2 wt %), or to a higher concentration of 5 wt %. Re-suspension was performed by weighing the powder, adding a measured amount of buffer and stirring for 30 minutes in room temperature.
The lifetime of the drug-loaded complexes increased to at least 3 weeks at the same temperature. Stability of the assemblies remains when they were transferred to room temperatures. […] This process provided increased stability of the loaded micelles in a dry powder form, for at least 6 months.

[7] = 0.5% β-casein, empty or loaded 1:8 celecoxib, pH ~7

B1: β-casein: bovine β-casein self-assembled into unloaded micelles in acidic or neutral buffer (protein, UniProt P02666 16-224, looked up)
Beta-casein: RELEELNVPGEIVESLSSSEESITRINKKIEKFQSEEQQQTEDELQDKIHPFAQTQSLVYPFPGPIPNSLPQNIPPLTQTPVVVPPFLQPEVMGVSKVKEAMAPKHKEMPFPKYPVEPFTESQSLTLTDVENLHLPLPLLQSWMHQPHQPLPPTVMFPPQSVLSLSQSKVLPVPQKAVPYPQRDMPIQAFLLYQEPVLGPVRGPFPIIV
modifications: self-assembled micelles
notes: bovine β-casein self-assembled into unloaded micelles in acidic or neutral buffer
- Density [1]: 1.23 g/mL
- Aggregation number (ultracentrifugation) ([2]; pH 2.6, around the CMC): 3
- Aggregation number (ultracentrifugation) ([2]; pH 2.6, concentrations higher than the CMC, 24-25 °C): 6
- Nagg (ultracentrifugation) ([2]; pH 7.0, ionic strength 0.1): 20
- Solid form by X-ray diffraction [3]: amorphous pattern
- Solution density ([4]; 4 °C): 1.01 g/mL
- Solution density ([4]; 16 °C): 1.009 g/mL
- Solution density ([4]; 25 °C): 1.007 g/mL
- Solution density ([4]; 40 °C): 1.002 g/mL
- Micelle diameter (DLS), after lyophilization and re-suspension [5, 7]: 21 nm
- Micelle diameter (DLS), before drying [5, 7]: 19 nm
- Micelle diameter (DLS) ([5]; 2 wt % β-casein, empty or loaded 1:1 budesonide, hepes buffer pH 7.0): 19.6±3.4 nm
- Lifetime of empty micelles on storage [6]: degraded within a few days
